Measured values as given in PMC4571291, “How Leiomodin and Tropomodulin use a common fold for different actin assembly functions” (Nature Communications, 2015).

B1: Lmod2_(ABS2) (domain or fragment)
chain: NGRNTESPAAIHPCGNPTVIEDALDKIKSNDPDTTEVNLNNIENITTQTLTRFAEALKDNTVVKTFSLANTHADDSAAMAIAEMLKVNEHITNVNVESNFITGKGILAIMRALQHNTVLTELRFHNQRHIMGSQVEMEIVKLLKENTTLLRLGYHFELPGPRMSMTSILTRNMDKQRQKRLQEQKQQE
notes: the limits 180-367 are printed for the construct of the same name made for cell expression; Cloned in vector pTYB1; also called isolated ABS2 of Lmod2
B2: TL2_(ABS2) (domain or fragment)
chain: VIKPTQYKPVPDEEPNSTDVEETLERIKNNDPKLEEVNLNNIRNIPIPTLKAYAEALKENSYVKKFSLANTHADDSAAMAIAEMLKVNEHITNVNVESNFITGKGILAIMRALQHNTVLTELRFHNQRHIMGSQVEMEIVKLLKENTTLLRLGYHFELPGPRMSMTSILTRNMDKQRQKRLQEQKQQE
notes: human tropomodulin 1 residues 164-229; The junction was made with a silent NruI site; cloned in vector pTYB1; also called Tmod1-Lmod2 ABS2 hybrid construct
B3: TL1_(ABS2) (domain or fragment)
chain: VIKPTQYKPVPDEEPNSTDVEETLERIKNNDPKLEEVNLNNIRNIPIPTLKAYAEALKENSYVKKFALANTRADDHVAFAIAIMLKANKTITSLNLDSNHITGKGILAIFRALLQNNTLTELRFHNQRHICGGKTEMEIAKLLKENTTLLKLGYHFELAGPRMTVTNLLSRNMDKQRQKRLQEQRQAQ
notes: human tropomodulin 1 residues 164-229; human leiomodin 1 residues 365-486; The junction was made with a silent NruI site; cloned in vector pTYB1; also called Tmod1-Lmod1 ABS2 hybrid construct

Molecular target: actin (UniProt P68135 1-377)
Test: ITC; Tmod or Lmod construct in the syringe titrated into LatB-actin in the cell (LatB:actin 1.2:1); 20 mM HEPES pH 7.5, 100 mM NaCl, 0.2 mM ATP, 1 mM DTT; temperature and concentrations listed in the figures
Conditions: both partners purified

Row | stoichiometry N | Binder
1 | 2 | B1
2 | 2 | B2
3 | 2 | B3
